Measured values reported in IntAct's records for PubMed 26922829.

Target: crp_human CRP (UniProt P02741)
Sequence (P02741 whole entry): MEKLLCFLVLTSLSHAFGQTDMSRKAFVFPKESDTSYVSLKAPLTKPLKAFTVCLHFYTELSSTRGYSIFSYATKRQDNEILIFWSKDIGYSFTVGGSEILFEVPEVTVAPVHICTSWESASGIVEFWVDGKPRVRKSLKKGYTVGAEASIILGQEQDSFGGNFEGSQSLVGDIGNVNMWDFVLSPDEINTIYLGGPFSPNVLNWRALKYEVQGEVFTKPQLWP

Row | Substance | effect of a mutation on the interaction
1 | Collectin-12 (Homo sapiens), Q5KU26 K466A;K469A;K472A | with no effect
2 | Collectin-12 (Homo sapiens), Q5KU26 R448A;R451A;R454A | decreasing interaction strength
3 | Collectin-12 (Homo sapiens), Q5KU26 R448A;R451A;R454A;K466A;K469A;K472A;R496A;K499A;K502A | decreasing interaction strength
4 | Collectin-12 (Homo sapiens), Q5KU26 R496A;K499A;K502A | disrupting interaction strength
